Measured values taken from patent US20230212613.

Assays:
[1] = system: TRAC TALEN right monomer (artificial); experiment: cell_activity; conditions: as TALEN pair with left monomer; primary human T cells, plateau by 72 h
[2] = system: TRAC TALEN left monomer (artificial); experiment: cell_activity; conditions: as TALEN pair with right monomer; primary human T cells, plateau by 72 h

Row | Sequence | activity [1] | activity [2]
1 | GGTACAGGTAAGAGCAA (double strand) [TRAC TALEN right half-site] | 90 % indels | 
2 | TTCCTCCTACTCACCAT (double strand) [TRAC TALEN left half-site] |  | 90 % indels
